From patent US5955431A, “Mast cell protease peptide inhibitors” (Brigham and Women's Hospital, Inc., priority 1998, dated 1999)
Where a SMILES comes first, the peptide text is derived from it. The star is where a group is joined. pNA = O=[N+]([O-])c1ccc(N*)cc1

What was measured:
recombinant mMCP-7-FLAG = target: T1, recombinant mMCP-7-FLAG (Mus musculus, UniProt Q02844); assay: cleavage of p-nitroanilide substrate by mMCP-7-FLAG; format: biochemical; conditions: in vitro
T1 construct: made in house; host or cells: insect cells (described in earlier work of the same group)

recombinant mMCP-6-FLAG = target: T2, recombinant mMCP-6-FLAG (Mus musculus, UniProt P21845); assay: spectrophotometric cleavage of trypsin-susceptible p-nitroanilide substrates by EK-activated mMCP-6-FLAG; format: biochemical
T2 construct: endogenous pro-peptide followed by EK-susceptible peptide (Asp-Asp-Asp-Asp-Lys) (N, cleaved yes); made in house; host or cells: baculovirus; Spodoptera frugiperda 9 for virus, Trichoplusia ni High Five insect cells for expression
T2 sequence (P21845 32-276): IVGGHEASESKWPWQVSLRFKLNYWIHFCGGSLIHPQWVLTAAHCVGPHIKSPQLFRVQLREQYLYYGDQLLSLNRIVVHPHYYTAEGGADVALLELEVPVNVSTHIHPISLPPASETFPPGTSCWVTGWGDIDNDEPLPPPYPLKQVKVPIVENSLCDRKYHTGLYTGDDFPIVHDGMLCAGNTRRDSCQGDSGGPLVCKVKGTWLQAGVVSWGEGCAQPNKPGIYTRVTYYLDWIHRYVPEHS
Experimental: Purified pro-EK-mMCP-6-FLAG (~100 μg in 100 μl) was separately mixed with 100 μl of a pH 5.2 buffer consisting of 50 mM sodium acetate and 5 mM calcium chloride. One μl of a solution containing 550 U of calf intestine EK (Biozyme) was added to each, and the mixture was incubated at 37° C. generally for 3 h to allow EK to activate the zymogen in the absence of heparin. The spectrophotometric method of Svendsen and coworkers (Throm. Res. 1972, 1:267-278) was used to determine whether or not mMCP-6-FLAG is enzymatically active. Generally, 1-μl samples of each activation reaction were placed in 1 ml of a pH 7.4 buffer containing 25 mM sodium phosphate, 1 mM EDTA, and 50 μg of tosyl-Gly-Pro-Lys-p-nitroanilide. The change in optical density at 405 nm was then determined after a 3-min incubation at room temperature. The ability of recombinant mMCP-6-FLAG to cleave the trypsin-susceptible substrates tosyl-Gly-Pro-Arg-p-nitroanilide, benzoyl-Ile-Glu-Gly-Arg-p-nitroanilide, benzoyl-Pro-Phe-Arg-p-nitroanilide, and acetyl-Ile-Glu-Ala-Arg-p-nitroanilide were also evaluated.

neutrophils = assay: emigration of neutrophils into the peritoneal cavity after injection of tryptase; format: in vivo, BALB/c mice
Source text: mMCP-6-FLAG-Induced Emigration of Neutrophils Into the Peritoneal Cavity and mMCP-6-Induced Growth of Fibroblasts and their Adhesion to Fibronectin--This experiment is discussed below.
mMCP-6-Induced Emigration of Neutrophils Into the Peritoneal Cavity of BALB/c Mice--The mast cells that reside in the peritoneal cavity of BALB/c mice express mMCP-6 but not mMCP-7 (Stevens et al., Proc. Natl. Acad. Sci. USA 1994, 91:128-132). […] Thus, the direct or indirect chemotaxis activity of mMCP-6 is relatively neutrophil specific. It also appears that tryptase treatment results in a relatively persistent recruitment of neutrophils into the peritoneal cavity.

[1] = tested on: Swiss albino mouse skin-derived 3T3 fibroblasts; assay: adhesion and growth of fibroblasts on fibronectin-coated culture dishes; format: cell-based; conditions: for adhesion/shape of fibroblasts on fibronectin-coated dishes: 15 min at 37° C.
Experimental: However, these cells will become less adhesive and divide in vitro when they are trypsin treated. To determine if mMCP-6-FLAG could specifically alter the growth and/or adhesion of these cells, the fibroblasts were allowed to attach to replicate fibronectin-coated culture dishes and then were incubated for 15 min at 37° C. with buffer alone or buffer containing either pro-EK-mMCP-6-FLAG, mMCP-6-FLAG, mMCP-7-FLAG, or trypsin. […] SDS-PAGE/immunoblot analysis of the supernatants from the result cultures confirmed that fibronectin was degraded in the mMCP-6-FLAG-treated cultures but not in the pro-EK-mMCP-6-FLAG or mMCP-7-FLAG treated cultures.

mouse fibronectin = assay: in vitro degradation of fibronectin by recombinant tryptases; format: biochemical; conditions: for cleavage of fibronectin in vitro: SDS-PAGE of digests
Experimental: In Vitro Degradation of Fibronectin by Recombinant mMCP-6-FLAG--Five μg of purified mouse fibronectin (Alexis) was suspended in 1 mM EDTA and 25 mM sodium phosphate, pH 7.4, containing 0.01 U EK, 0.5 μg recombinant pro-EK-mMCP-6-FLAG, 0.5 μg recombinant mMCP-6-FLAG (activated with 0.01 U EK), or 0.5 μg recombinant mMCP-7FLAG (activated with 0.01 U EK). After an incubated for various lengths of times, the resulting digests were subjected to SDS-PAGE. In one experiment, the N-terminal amino acid sequences; of the major fibronectin fragments in the mMCP-FLAG digest were determined.

T1 sequence (Q02844 29-273): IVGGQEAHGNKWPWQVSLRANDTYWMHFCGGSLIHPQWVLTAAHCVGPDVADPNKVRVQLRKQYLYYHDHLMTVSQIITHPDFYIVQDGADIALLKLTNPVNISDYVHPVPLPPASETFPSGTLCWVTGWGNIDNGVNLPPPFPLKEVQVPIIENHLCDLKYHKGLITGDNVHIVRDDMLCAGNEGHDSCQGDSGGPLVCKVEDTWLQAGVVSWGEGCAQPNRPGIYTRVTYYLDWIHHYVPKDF

Q: What does the source list for `CC[C@H](C)[C@H](NC(C)=O)C(=O)N[C@@H](CCC(=O)O)C(=O)N[C@@H](C)C(=O)N[C@@H](CCCN=C(N)N)C(=O)Nc1ccc([N+](=O)[O-])cc1` [acetyl-Ile-Glu-Ala-Arg-p-nitroanilide] (Ac-IEAR-pNA)?
A: cleavage of substrate by mMCP-7-FLAG compared with mMCP-6-FLAG (recombinant mMCP-7-FLAG): much better than mMCP-6-FLAG; cleavage of substrate by mMCP-6-FLAG (recombinant mMCP-6-FLAG; in the presence or absence of heparin): does not effectively cleave

Q: Which “neutrophil chemotaxis activity in the in vivo assay” value (neutrophils; enzymatically active tryptase, peritoneal cavity) does the source give for “mMCP-7-FLAG: EK-activated recombinant mouse mast cell protease 7 (tryptase) with FLAG peptide” here?
A: very little, if any

Q: What about the “contact inhibition of treated fibroblasts” value [1] of the same molecule?
A: do not lose their contact inhibition

Q: And the “rate of proliferation of treated fibroblasts” value [1]?
A: do not increase their rate of proliferation

Q: And the “adhesion/shape of fibroblasts on fibronectin-coated dishes” value [1]?
A: continued to adhere

Q: And the “cleavage of fibronectin in vitro” value (mouse fibronectin)?
A: not

B1: mMCP-6-FLAG: EK-activated recombinant mouse mast cell protease 6 (tryptase) with the FLAG peptide attached to its C-terminus (protein, UniProt P21845 32-276, looked up)
Tryptase beta-2: IVGGHEASESKWPWQVSLRFKLNYWIHFCGGSLIHPQWVLTAAHCVGPHIKSPQLFRVQLREQYLYYGDQLLSLNRIVVHPHYYTAEGGADVALLELEVPVNVSTHIHPISLPPASETFPPGTSCWVTGWGDIDNDEPLPPPYPLKQVKVPIVENSLCDRKYHTGLYTGDDFPIVHDGMLCAGNTRRDSCQGDSGGPLVCKVKGTWLQAGVVSWGEGCAQPNKPGIYTRVTYYLDWIHRYVPEHS
modifications: C-terminal FLAG tag
Q: How did the “persistence of induced neutrophilia” value (neutrophils; kinetic experiments, peritoneal cavity) turn out when B1 was run?
A: at least 3 days

Q: And the “influx of neutrophils in the peritoneal cavity” value (neutrophils; six to 36 h after intraperitoneal administration)?
A: pronounced influx of neutrophils

Q: And the “adhesion/shape of fibroblasts on fibronectin-coated dishes” value [1]?
A: rapidly induced the cultured fibroblasts to round up

Q: What about the “fibroblasts remaining attached to the culture dish” value ([1]; 40 min incubation) of the same molecule?
A: very few fibroblasts remained attached

Q: What about the “degradation of fibronectin in culture supernatants” value ([1]; SDS-PAGE/immunoblot analysis) of the same molecule?
A: degraded

Q: And the “number of fibronectin fragments obtained” value (mouse fibronectin; 60-min incubation, tryptase bound to heparin)?
A: 2 fragments

Q: What about the “pH of optimal enzymatic activity” value (recombinant mMCP-6-FLAG; recombinant, EK-activated) of the same molecule?
A: ~7.4

B2: mMCP-6-FLAG/heparin complex: recombinant mMCP-6-FLAG bound to heparin glycosaminoglycan (protein, UniProt P21845 32-276, looked up)
Tryptase beta-2: IVGGHEASESKWPWQVSLRFKLNYWIHFCGGSLIHPQWVLTAAHCVGPHIKSPQLFRVQLREQYLYYGDQLLSLNRIVVHPHYYTAEGGADVALLELEVPVNVSTHIHPISLPPASETFPPGTSCWVTGWGDIDNDEPLPPPYPLKQVKVPIVENSLCDRKYHTGLYTGDDFPIVHDGMLCAGNTRRDSCQGDSGGPLVCKVKGTWLQAGVVSWGEGCAQPNKPGIYTRVTYYLDWIHRYVPEHS
modifications: C-terminal FLAG tag; complexed with heparin
Q: For B2, which “cleavage of fibronectin in vitro” value (mouse fibronectin) is on record?
A: readily cleaved
